Test results as given in publication PMC7305185.
Several values for one entry are separate records, joined by “and”; a condition that tells them apart may be missing. Identical values can stand only once.

Molecular target: His32 (UniProt position 32, AAQLPHDYCTT)
Assay: NMR
Settings: 20 °C; McIlvaine (phosphate-citrate) buffer with 2 mM DTT; Apo five-phospho 4E-BP2. The folded β-domain is populated at neutral pH and undergoes non-cooperative acid denaturation as pH is lowered.

With “Eukaryotic translation initiation factor 4E-binding protein 2 (4E-BP2), five-phospho form (5p-4E-BP2) (Homo sapiens (inferred; species of the construct not explicitly stated))” the pKa was 6.0 ± 0.2 and 5.9 ± 0.1 and 6.0 ± 0.3.
